Literature values, collected in US7547701B2, “Haloalkyl containing compounds as cysteine protease inhibitors” (Virobay, Inc., priority 2003, dated 2009).

Details: in clinical trials

OKT3: murine monoclonal antibody directed towards CD-3 domain of activated T-cells
patients administered OKT3 that produce antibodies versus the therapy: 20-40%
